# From patent US12459974B2, “Bicyclic peptide ligands specific for Nectin-4” (priority 2018, dated 2025)
# *1 amine or outer side, *2 acyl side, *3 side chain or, on linkers, in order; H or OH if unused. Where a SMILES comes first, the peptide text is derived from it. Bridges are numbered along the chain shown (N, C = ends). Roman numbers before positions name the chains, in order. [ ]: non-standard residue; d: D form. The star is where a group is joined. TATA = O=C(CC[*:1])N1CN(C(=O)CC[*:2])CN(C(=O)CC[*:3])C1; Dolaproine = CO[C@@H]([C@@H]1CCCN1)[C@@H](C)C(=O)O; Dil = CC[C@H](C)[C@H](NC)[C@@H](CC(=O)O)OC; 1Nal = N[C@@H](Cc1cccc2ccccc12)C(=O)O; X3 = O=C(CCCC(=O)[*:2])NCCC(=O)[*:1]; PABC = O=C(OCc1ccc(N[*:1])cc1)[*:2]; X4 = C[C@@H](N*)[C@@H](O)c1ccccc1; Hyp = O=C(O)[C@@H]1C[C@@H](O)CN1; hArg = N=C(N)NCCCC[C@H](N)C(=O)O; Cit = NC(=O)NCCC[C@H](N)C(=O)O; NMeV = CN[C@H](C(=O)O)C(C)C; Sar = CNCC(=O)O
# Assays:
# NCI-H292 xenograft [1] = assay: Example 1: in vivo efficacy in NCI-H292 xenograft (NSCLC model) in BALB/c nude mice; design: species or system Mus Musculus; settings: 5 mg/kg
# Protocol: (§1) The major endpoint was to see if the tumor growth could be delayed or mice could be cured. Tumor volume was measured three times weekly in two dimensions using a caliper, and the volume was expressed in mm^3 using the formula: V=0.5 a×b^2 where a and b are the long and short diameters of the tumor, respectively. The tumor size was then used for calculations of T/C value. The T/C value (in percent) is an indication of antitumor effectiveness; T and C are the mean volumes of the treated and control groups, respectively, on a given day. TGI was calculated for each group using the formula: TGI (%)=[1−(Ti−T0)/(Vi−V0)]×100; Ti is the average tumor volume of a treatment group on a given day, T0 is the average tumor volume of the treatment group on the day of treatment start, Vi is the average tumor volume of the vehicle control group on the same day with Ti, and V0 is the average tumor volume of the vehicle group on the day of treatment start.
# (§2) A one-way ANOVA was performed to compare tumor volume among groups, and when a significant F-statistics (a ratio of treatment variance to the error variance) was obtained, comparisons between groups were carried out with Games-Howell test. All data were analyzed using GraphPad Prism 5.0. P<0.05 was considered to be statistically significant.
# The NCI-H292 tumor cells will be maintained in medium supplemented with 10% heat inactivated fetal bovine serum at 37° C. in an atmosphere of 5% CO2 in air. The tumor cells will be routinely subcultured twice weekly. The cells growing in an exponential growth phase will be harvested and counted for tumor inoculation.
# Each mouse will be inoculated subcutaneously at the right flank with NCI-H292 tumor cells (10×10^6) in 0.2 ml of PBS for tumor development. The animals will be randomized and treatment will be started when the average tumor volume reaches approximately 158-406 mm^3.
# human Nectin-4 = molecular target: T1, human Nectin-4 (Homo sapiens, UniProt Q96NY8); assay: Nectin-4 competition binding assay (fluorescence polarisation); settings: competition with fluorescent peptide SEQ ID NO: 217; read-out: Ki
# T1 sequence (Q96NY8 32-510): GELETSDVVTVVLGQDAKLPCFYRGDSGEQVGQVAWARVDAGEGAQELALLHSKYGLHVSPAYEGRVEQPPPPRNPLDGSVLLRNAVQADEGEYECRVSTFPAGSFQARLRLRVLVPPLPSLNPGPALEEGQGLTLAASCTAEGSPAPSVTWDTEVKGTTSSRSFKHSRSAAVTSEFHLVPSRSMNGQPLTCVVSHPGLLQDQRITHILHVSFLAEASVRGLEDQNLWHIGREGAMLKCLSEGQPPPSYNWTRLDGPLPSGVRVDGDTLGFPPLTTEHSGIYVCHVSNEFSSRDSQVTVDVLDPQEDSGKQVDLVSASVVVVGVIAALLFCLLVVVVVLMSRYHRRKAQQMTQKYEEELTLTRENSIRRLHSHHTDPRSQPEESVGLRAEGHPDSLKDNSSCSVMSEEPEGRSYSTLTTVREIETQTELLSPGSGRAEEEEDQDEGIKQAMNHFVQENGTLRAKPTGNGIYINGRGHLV
# Outline: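 Serially diluted (1 in 2) peptides, max 5% DMSO, were mixed with human Nectin-4 and a fluorescent tracer peptide; FP read as in the direct binding assay. Ki from fitting mP values to a cubic competition equation using tracer concentration, tracer Kd and Nectin-4 concentration.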
# MDA-MB-468 xenograft [2] = assay: Example 4: in vivo efficacy in MDA-MB-468 xenograft (breast cancer model) in Balb/c nude mice; design: species or system Mus Musculus; settings: 5 mg/kg
# HCT116 xenograft = assay: Example 9.2: in vivo efficacy in HCT116 xenograft in Balb/c nude mice; design: species or system Mus Musculus; settings: 3 mg/kg biw
# NCI-H292 xenograft [3] = assay: Example 9.5: in vivo efficacy in NCI-H292 xenograft in Balb/c nude mice; design: species or system Mus Musculus; settings: 5 mg/kg; day 9; average
# MDA-MB-468 xenograft [4] = assay: Example 9.4: in vivo efficacy in MDA-MB-468 xenograft in Balb/c nude mice; settings: 5 mg/kg
# Protocol: as §1, §2
# • Species: Mus Musculus • Strain: Balb/c nude • Age: 6-8 weeks • Sex: female • Body weight: 18-22 g • Number of animals: 41 mice plus spare 3.1.2.
# The tumor cells were maintained in Leibovitz's L-15 medium supplemented with 10% heat inactivated fetal bovine serum at 37° C. in an atmosphere of 5% CO2 in air. The tumor cells were routinely subcultured twice weekly. The cells growing in an exponential growth phase were harvested and counted for tumor inoculation.
# 41 animals were randomized when the average tumor volume reached 196 mm^3.
# NCI-H526 xenograft = assay: Example 9.6: in vivo efficacy in NCI-H526 xenograft in Balb/c nude mice
# Protocol: as §1, §2
# • Species: Mus Musculus • Strain: Balb/c nude • Age: 6-8 weeks • Sex: female • Body weight: 18-22 g • Number of animals: 21 mice plus spare 3.1.2.
# The NCI-H526 cells were maintained in medium supplemented with 10% heat inactivated fetal bovine serum at 37° C. in an atmosphere of 5% CO2 in air. The tumor cells were routinely subcultured twice weekly. The cells growing in an exponential growth phase were harvested and counted for tumor inoculation.
# Each mouse was inoculated subcutaneously at the right flank with NCI-H526 tumor cells (5.0×10^6 in 0.2 ml of PBS for tumor development. 21 animals were randomized when the average tumor volume reached 181 mm^3. The test article administration and the animal numbers in each group were shown in the experimental design table.
# Tumor growth inhibition rate for test articles in the NCI-H526 xenograft model was calculated based on tumor volume measurements at day 14 after the start of the treatment.
# HT-1376 xenograft = assay: Example 2: in vivo efficacy in HT-1376 xenograft (bladder cancer model) in CB17-SCID mice; settings: 3 mg/kg
# Protocol: as §1
# A one-way ANOVA was performed to compare tumor volume among groups, and when a significant F-statistics (a ratio of treatment variance to the error variance) was obtained, comparisons between groups were carried out with Games-Howell test. […] P<0.05 was considered to be statistically significant.
# • Species: Mus Musculus • Strain: CB17-SCID • Age: 6-8 weeks • Sex: female • Body weight: 18-22 g • Number of animals: 21-41 mice plus spare • Animal supplier: Shanghai LC Laboratory Animal Co., LTD.
# The HT-1376 tumor cells were maintained in vitro as a monolayer culture in EMEM medium supplemented with 10% heat inactivated fetal bovine serum at 37° C. in an atmosphere of 5% CO2 in air. The tumor cells were routinely subcultured twice weekly by trypsin-EDTA treatment.
# Each mouse was inoculated subcutaneously at the right flank with HT-1376 tumor cells (5×10^6) in 0.2 ml of PBS with matrigel (1:1) for tumor development. Animals were randomized when the average tumor volume reached 153-164 mm^3.
# Tumor growth inhibition rate for Test articles in the HT-1376 xenograft model was calculated based on tumor volume measurements at day 21 after the start of treatment.
compound,measurement,setting,value
"CC[C@H](C)[C@@H]([C@@H](CC(=O)N1CCC[C@H]1[C@H](OC)[C@@H](C)C(=O)N[C@H](C)[C@@H](O)c1ccccc1)OC)N(C)C(=O)[C@@H](NC(=O)[C@H](C(C)C)N(C)C(=O)OCc1ccc(NC(=O)[C@H](CCCNC(N)=O)NC(=O)[C@@H](NC(=O)CCCC(=O)NCCC(=O)N(C)CC(=O)N(C)CC(=O)N(C)CC(=O)N(C)CC(=O)N(C)CC(=O)N[C@H]2CSCCC(=O)N3CN4CN(C3)C(=O)CCSC[C@H](NC(=O)[C@@H](CC(=O)O)NC(=O)[C@H](Cc3ccccc3)NC(=O)[C@@H]3CCCN3C2=O)C(=O)N[C@@H](CCSC)C(=O)N[C@@H](CCCCNC(=N)N)C(=O)N[C@@H](CC(N)=O)C(=O)N[C@@H](Cc2c[nH]c3ccccc23)C(=O)N[C@@H](CO)C(=O)N[C@@H](Cc2c[nH]c3ccccc23)C(=O)N2CCC[C@H]2C(=O)N[C@@H]([C@@H](C)CC)C(=O)N[C@@H](Cc2c[nH]c3ccccc23)C(=O)N[C@H](C(N)=O)CSCCC4=O)C(C)C)cc1)C(C)C [BCY7683, MMAE-PABC-Cit-Val-Glutaryl-BCY7556] (I: [Sar][Sar][Sar][Sar][Sar]CPF[dD]CM[hArg]NWSWPIWC-NH2 / II: V[Cit][PABC][NMeV]V[Dil][Dolaproine]-X4; linker I:6-I:10-I:20 via TATA; linker I:N-II:N via X3)",bodyweight (in words),NCI-H292 xenograft [1],severe bodyweight loss
"CC[C@H](C)[C@@H]1NC(=O)[C@H](CCCNC(=N)N)NC(=O)[C@H](CC(N)=O)NC(=O)[C@@H]2CSCCC(=O)N3CN(CN(C3)C(=O)CCSC[C@H](NC(C)=O)C(=O)N[C@@H](C)C(=O)N3CCC[C@H]3C(=O)N[C@@H](CC(C)C)C(=O)N[C@@H](CO)C(=O)N[C@@H](CC(=O)O)C(=O)N[C@@H](Cc3ccc(O)cc3)C(=O)N[C@@H](Cc3c[nH]c4ccccc34)C(=O)N2)C(=O)CCSC[C@@H](C(N)=O)NC1=O [BCY8044, Ac-(SEQ ID NO: 34)] (Ac-CAPLSDYWCNRIC-NH2; linker 1-9-13 via TATA; C-terminus assumed)",Ki,human Nectin-4,0.17 µM
"CC[C@H](C)[C@@H]1NC(=O)[C@@H]2CCCN2C(=O)[C@H]([C@@H](C)O)NC(=O)[C@H](CO)NC(=O)[C@H](Cc2c[nH]c3ccccc23)NC(=O)[C@H](CC(N)=O)N(C)C(=O)[C@H](CCCCNC(=N)N)NC(=O)[C@H](CCSC)NC(=O)[C@@H]2CSCCC(=O)N3CN(CN(C3)C(=O)CCSC[C@H](NC(C)=O)C(=O)N3CCC[C@H]3C(=O)N[C@@H](Cc3ccccc3)C(=O)N[C@H](CC(=O)O)C(=O)N2)C(=O)CCSC[C@@H](C(N)=O)NC(=O)[C@H](Cc2c[nH]c3ccccc23)NC1=O [BCY8154, Ac-(SEQ ID NO: 174)]",Ki,human Nectin-4,0.008 µM
"CC[C@H](C)[C@H]1C(=O)N[C@@H](Cc2c[nH]c3ccccc23)C(=O)N[C@H](C(N)=O)CSCCC(=O)N2CN3CN(C2)C(=O)CCSC[C@H](NC(C)=O)C(=O)N2CCC[C@H]2C(=O)N[C@@H](Cc2ccccc2)C(=O)N[C@H](CC(=O)O)C(=O)N[C@@H](CSCCC3=O)C(=O)N[C@@H](CCSC)C(=O)N[C@@H](CCCCNC(=N)N)C(=O)N[C@@H](CC(N)=O)C(=O)N[C@@H](Cc2c[nH]c3ccccc23)C(=O)N[C@@H](CO)C(=O)N[C@@H]([C@@H](C)O)C(=O)N2CCC[C@H]2C(=O)N1C [BCY8158, Ac-(SEQ ID NO: 176)]",Ki,human Nectin-4,0.177 µM
"CSCC[C@@H]1NC(=O)[C@@H]2CSCCC(=O)N3CN(CN(C3)C(=O)CCSC[C@H](NC(C)=O)C(=O)N3CCC[C@H]3C(=O)N[C@@H](Cc3cccc4ccccc34)C(=O)N[C@H](CC(=O)O)C(=O)N2)C(=O)CCSC[C@@H](C(N)=O)NC(=O)[C@H](Cc2c[nH]c3ccccc23)NC(=O)[C@@H]2C[C@@H](O)CN2C(=O)[C@@H]2CCCN2C(=O)[C@H]([C@@H](C)O)NC(=O)[C@H](CO)NC(=O)[C@H](Cc2c[nH]c3ccccc23)NC(=O)[C@H](CC(=O)O)NC(=O)[C@H](CCNC(=N)N)NC1=O [BCY8181, Ac-(SEQ ID NO: 186)]",Ki,human Nectin-4,0.0035 µM
"CSCC[C@@H]1NC(=O)[C@@H]2CSCCC(=O)N3CN(CN(C3)C(=O)CCSC[C@H](NC(C)=O)C(=O)N3CCC[C@H]3C(=O)N[C@@H](Cc3cccc4ccccc34)C(=O)N[C@H](CCCNC(=N)N)C(=O)N2)C(=O)CCSC[C@@H](C(N)=O)NC(=O)[C@H](Cc2c[nH]c3ccccc23)NC(=O)[C@@H]2C[C@@H](O)CN2C(=O)[C@@H]2CCCN2C(=O)[C@H]([C@@H](C)O)NC(=O)[C@H](CCO)NC(=O)[C@H](Cc2c[nH]c3ccccc23)NC(=O)[C@H](CC(=O)O)NC(=O)[C@H](CCCCNC(=N)N)NC1=O [BCY8188, Ac-(SEQ ID NO: 193)]",Ki,human Nectin-4,0.02 µM
"CSCC[C@@H]1NC(=O)[C@@H]2CSCCC(=O)N3CN(CN(C3)C(=O)CCSC[C@H](NC(C)=O)C(=O)N3CCC[C@H]3C(=O)N[C@@H](Cc3cccc4ccccc34)C(=O)N[C@H](CCCNC(=N)N)C(=O)N2)C(=O)CCSC[C@@H](C(N)=O)NC(=O)[C@H](Cc2c[nH]c3ccccc23)NC(=O)[C@@H]2C[C@@H](O)CN2C(=O)[C@@H]2CCCN2C(=O)[C@H](CO)NC(=O)[C@H](CO)NC(=O)[C@H](Cc2c[nH]c3ccccc23)NC(=O)[C@H](CC(=O)O)NC(=O)[C@H](CCCCNC(=N)N)NC1=O [BCY8191, Ac-(SEQ ID NO: 195)] (Ac-CP[1Nal][dR]CM[hArg]DWSSP[Hyp]WC-NH2; linker 1-5-15 via TATA; C-terminus assumed)",Ki,human Nectin-4,0.0045 µM
"CC[C@H](C)[C@@H]([C@@H](CC(=O)N1CCC[C@H]1[C@H](OC)[C@@H](C)C(=O)N[C@H](C)[C@@H](O)c1ccccc1)OC)N(C)C(=O)[C@@H](NC(=O)[C@H](C(C)C)N(C)C(=O)OCc1ccc(NC(=O)[C@H](CCCNC(N)=O)NC(=O)[C@@H](NC(=O)CCCC(=O)NCCC(=O)N(C)CC(=O)N(C)CC(=O)N(C)CC(=O)N(C)CC(=O)N(C)CC(=O)N(C)CC(=O)N(C)CC(=O)N(C)CC(=O)N(C)CC(=O)N(C)CC(=O)N[C@H]2CSCCC(=O)N3CN4CN(C3)C(=O)CCSC[C@H](NC(=O)[C@@H](CCCNC(=N)N)NC(=O)[C@H](Cc3cccc5ccccc35)NC(=O)[C@@H]3CCCN3C2=O)C(=O)N[C@@H](CC(C)C)C(=O)N[C@@H](CCCCNC(=N)N)C(=O)N[C@@H](Cc2c[nH]cn2)C(=O)N[C@@H](Cc2c[nH]c3ccccc23)C(=O)N[C@@H](CO)C(=O)N[C@@H]([C@@H](C)O)C(=O)N2CCC[C@H]2C(=O)N2C[C@H](O)C[C@H]2C(=O)N[C@@H](Cc2c[nH]c3ccccc23)C(=O)N[C@H](C(N)=O)CSCCC4=O)C(C)C)cc1)C(C)C [BCY8253, MMAE-PABC-Cit-Val-Glutaryl-BCY8231] (I: [Sar][Sar][Sar][Sar][Sar][Sar][Sar][Sar][Sar][Sar]CP[1Nal][dR]CL[hArg]HWSTP[Hyp]WC-NH2 / II: V[Cit][PABC][NMeV]V[Dil][Dolaproine]-X4; linker I:11-I:15-I:25 via TATA; linker I:N-II:N via X3)",bodyweight loss,"NCI-H292 xenograft [1]; day 9, average",> 15%
same,animal body weight (in words),MDA-MB-468 xenograft [2],severe animal body weight loss
same,death,MDA-MB-468 xenograft [2],found dead on day 20
same,bodyweight loss,HCT116 xenograft,15%
same,bodyweight loss,NCI-H292 xenograft [3],> 15%
same,animal body weight (in words),MDA-MB-468 xenograft [4],severe animal body weight loss
same,death,MDA-MB-468 xenograft [4],found dead on day 20
"CC[C@H](C)[C@@H]([C@@H](CC(=O)N1CCC[C@H]1[C@H](OC)[C@@H](C)C(=O)N[C@H](C)[C@@H](O)c1ccccc1)OC)N(C)C(=O)[C@@H](NC(=O)[C@H](C(C)C)N(C)C(=O)OCc1ccc(NC(=O)[C@H](CCCNC(N)=O)NC(=O)[C@@H](NC(=O)CCCC(=O)NCCC(=O)N(C)CC(=O)N(C)CC(=O)N(C)CC(=O)N(C)CC(=O)N(C)CC(=O)N(C)CC(=O)N(C)CC(=O)N(C)CC(=O)N(C)CC(=O)N(C)CC(=O)N[C@H]2CSCCC(=O)N3CN4CN(C3)C(=O)CCSC[C@H](NC(=O)[C@@H](CCCNC(=N)N)NC(=O)[C@H](Cc3cccc5ccccc35)NC(=O)[C@@H]3CCCN3C2=O)C(=O)N[C@@H](CCSC)C(=O)N[C@@H](CCCCNC(=N)N)C(=O)N[C@@H](CC(=O)O)C(=O)N[C@@H](Cc2c[nH]c3ccccc23)C(=O)N[C@@H](CO)C(=O)N[C@@H]([C@@H](C)O)C(=O)N2CCC[C@H]2C(=O)N2C[C@H](O)C[C@H]2C(=O)N[C@@H](Cc2c[nH]c3ccccc23)C(=O)N[C@H](C(N)=O)CSCCC4=O)C(C)C)cc1)C(C)C [BCY8255, MMAE-PABC-Cit-Val-Glutaryl-BCY8235] (I: [Sar][Sar][Sar][Sar][Sar][Sar][Sar][Sar][Sar][Sar]CP[1Nal][dR]CM[hArg]DWSTP[Hyp]WC-NH2 / II: V[Cit][PABC][NMeV]V[Dil][Dolaproine]-X4; linker I:11-I:15-I:25 via TATA; linker I:N-II:N via X3)",animal body weight (in words),MDA-MB-468 xenograft [2],severe animal body weight loss
same,bodyweight loss,HCT116 xenograft,15%
same,animal bodyweight loss,NCI-H526 xenograft; 3 mg/kg biw,over 15%
same,animal bodyweight loss,NCI-H526 xenograft; 5 mg/kg qw,over 15%
same,animal body weight (in words),MDA-MB-468 xenograft [4],severe animal body weight loss
same,death,HT-1376 xenograft,found dead on day 16
